Results taken from the supplement of paper PMC10126150.
± gives the standard deviation of the averaged measurements.

Test system: ATP
Assay: switch fluorescence ratio, 500 uM ATP over buffer (Cy3 cluster intensity, sum of 5 cycles each) (fold (ratio)); higher = stronger signal-on switching upon ATP binding; sequences stand for … in TCGTCGGCAGCGTCAGATGTGTATAAGAGACAGTTTTTTTTTTTTTTTTTTTTTTTTT…TC
Settings: aptamer strand: ATP DNA aptamer (quencher-CACCTGGGGGAGTATTGCGGAGGAAGG + anchor), 100 nM annealed; ATP concentration: 500 uM
How it was run: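 Imaging in selection buffer was followed by imaging after 15 min with 500 uM ATP at 22 °C, for Cy3-labelled switching-strand clusters annealed to 100 nM quencher-labelled ATP aptamer on a modified Illumina MiSeq flow-cell. Five of these buffer/ATP cycles ran, separated by NaOH stripping and re-annealing. The fluorescence ratio per cluster is summed target-cycle over summed buffer-cycle Cy3 intensity, averaged per switch-domain sequence; clusters outside 100-1000 RFU were removed.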
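Also: ATP exposure 15 min at 22 °C before imaging.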

Sequence	switch fluorescence ratio
ATGTAGTTAT	0.996 ± 0.048
CCCCGGGTAA	1.33 ± 0.012
TGGATAGTGT	0.998 ± 0.011
TGCCAAGGTT	1.02 ± 0.034
GACGATACGT	1.14 ± 0.038
TTGTATTAGT	0.9835 ± 0.0093
CCTTGCACG	1.18 ± 0.22
CTCATATAGC	0.999 ± 0.019
ATTGGTAGAG	0.9717 ± 0.0024
AGGGAGATTT	0.99 ± 0.03
TTTGAAAATA	0.962 ± 0.018
TTCCGTTTTA	1.15 ± 0.17
CCTGTTTCTA	1.17 ± 0.23
GGGGTGGAGG	1.02 ± 0.017
ATGAGCCAGT	1.003 ± 0.004
ATCAGGCGTA	0.975 ± 0.038
GGGGGGTGCA	1.02 ± 0.018
AAAAGTTTGG	1 ± 0.015
AAGTGGGTGT	0.99 ± 0.059
CCTGCGTCTG	1.9 ± 0.065
AGATAATTTT	0.988 ± 0.014
CTCAGGTGGC	1.04 ± 0.053
ATCCTCGGCC	1.52 ± 0.039

Sequence	switch fluorescence ratio
ATCGCGGATT	0.994 ± 0.023
TCAACTATGG	0.989 ± 0.075
TTCAAACGAG	1.01 ± 0.031
TGGGTGTCGG	1.04 ± 0.019
GGGATCTACG	1.04 ± 0.026
TATGTATCGC	1.13 ± 0.15
TGCAATGATG	1.04 ± 0.039
GGGTCGCGCA	1.02 ± 0.029
TTCACGGTCG	1.03 ± 0.024
CAGGTTGTTC	1.005 ± 0.0011
TTCGGGTTAA	1.05 ± 0.017
CATATCTAAG	1.002 ± 0.0019
CTAGTACGGG	1.04 ± 0.031
CCAATTAATC	1.03 ± 0.032
GGGGCTTATG	0.968 ± 0.0079
ATTGTTTAAG	1.01 ± 0.024
ATCTGAGTTA	1.03 ± 0.058
GAACGTCTGC	1.08 ± 0.011
TATTGGGTTC	0.965 ± 0.011
ACGGCATTTC	1.28 ± 0.047
GTCATGAGCG	1 ± 0.012
GGGCAATAAC	3.95 ± 0.13
CGATGGGTGC	0.946 ± 0.015

Sequence	switch fluorescence ratio
GGGGTTTTGA	0.97725 ± 0.00091
ACGAAGATTA	1.03 ± 0.014
TGGGGGCCAT	0.999 ± 0.014
GCTGTGCACG	1.02 ± 0.02
GCGGTTCCTC	1.05 ± 0.027
CGGGGGTACA	1.02 ± 0.019
GACTAATTGG	0.957 ± 0.013
TGGGTTAACA	0.991 ± 0.018
TTGTGTTTGT	1 ± 0.03
TAGCTGTTCG	0.9887 ± 0.004
ATTAAGGCGC	0.998 ± 0.029
GTTTTGCTGT	0.986 ± 0.046
GGGGCGCGGG	1.03 ± 0.033
TATAACGTCC	1.11 ± 0.093
AAATTATGCG	0.99 ± 0.023
GAAGGCACGG	1.04 ± 0.047
AGGGTGGCTA	1.011 ± 0.0015
CCGGGCCAGG	1.255 ± 0.0081
TTGACATGGG	1 ± 0.029
TGGGTATAAC	1 ± 0.018
GTGTGTGGCA	1.03 ± 0.038
TTGGGCGAAT	0.988 ± 0.021
GAGGGAGTGG	1.01 ± 0.037

Sequence	switch fluorescence ratio
ATAATAGAGT	1.02 ± 0.024
GGAAAAATGT	1.01 ± 0.025
GAGGTGGTAG	0.951 ± 0.034
GACCTAAGGT	0.988 ± 0.035
TGGGGCAAGG	1.04 ± 0.031
CACCGGGATG	1.31 ± 0.099
TTGGGGTAAA	1.03 ± 0.044
TGTGGGGGTG	1.01 ± 0.033
ATTTTTGGGT	0.994 ± 0.031
TTGGATGAAA	1.03 ± 0.076
GTGGGCATGG	0.977 ± 0.022
ACTAGTGGTC	0.992 ± 0.042
GCGATGGGGA	1.012 ± 0.0098
TGGGGGAGTG	0.985 ± 0.024
TGAGTTGAAG	0.9869 ± 0.0056
ATTTATGTAA	0.987 ± 0.012
AGACAGGGG	1.04 ± 0.017
TTGGTGTTCT	1.08 ± 0.039
CATAACGTAC	1.97 ± 0.21
ATGATTGATG	1.02 ± 0.019
GCCTGCTTGC	1.03 ± 0.053
CACGTCTAGG	1.05 ± 0.048
TGTGAATCCA	0.976 ± 0.027

Sequence	switch fluorescence ratio
TAAGCTATTT	1.02 ± 0.025
CGGGGATTTG	0.976 ± 0.032
TATGTTAGTG	1.01 ± 0.042
GCTGAAAGGG	0.9903 ± 0.0067
TCTCATTACG	1.012 ± 0.0094
AGATTTGGCT	0.9952 ± 0.0065
CGTCCGGGGT	1.48 ± 0.62
CGTTCGGGGT	0.981 ± 0.012
AAGGGGGAAT	1.05 ± 0.031
TACTGTGGTC	1.025 ± 0.0053
GCCAGGGATT	1.01 ± 0.029
TCTAATTACA	1.04 ± 0.073
TTTTTGTGTA	0.969 ± 0.012
AGGCGGAGCT	0.9926 ± 0.0033
AGCGGCCTAA	0.987 ± 0.014
AGAGGCATCG	0.9941 ± 0.005
CTAATCAAAT	0.973 ± 0.019
GATCGGTGCT	1 ± 0.015
TAGGGGGTCA	1 ± 0.022
GGTGCCGCGG	1.01 ± 0.023
TATTTCCGGG	1.012 ± 0.0045
AATTTATCCG	1.02 ± 0.059
ATGCGCAGAT	1.046 ± 0.0063

Sequence	switch fluorescence ratio
TTAAATTGGG	1.01 ± 0.018
TTAGCCGGAC	1.05 ± 0.013
TTGTGTGGGA	1.02 ± 0.026
TGGTGCTAAG	1.03 ± 0.02
CTAGAGGGGG	0.9711 ± 0.0094
TGTCAAAAAG	1 ± 0.017
GGGGGCATCG	1.01 ± 0.018
GTTATAGTAT	0.963 ± 0.054
TTTTGATACG	0.996 ± 0.041
GCGGGAATGA	1 ± 0.045
GTTTATGCAT	1 ± 0.022
ATATGAGCAG	1.02 ± 0.024
ATCTTATCGT	0.982 ± 0.027
TTTGCATACT	2.75 ± 2.4
GATCCATGCT	0.9536 ± 0.0019
GAAGTTAGGG	0.981 ± 0.032
GTTTTTTGGT	0.982 ± 0.03
TAACGGGATG	1 ± 0.017
ACCAAGTTGG	0.993 ± 0.016
TTTGTGATGT	1.02 ± 0.066
GAAATTGATG	0.983 ± 0.017
ATGTAGGTGA	1.03 ± 0.017
GCATTGGTGG	1.03 ± 0.019

Sequence	switch fluorescence ratio
CCTGGTTGTG	0.992 ± 0.029
TGAATTTCTT	0.986 ± 0.022
AAATATTGAG	1 ± 0.015
TTATGATTCT	0.972 ± 0.025
CACGCGTGGA	1.003 ± 0.0055
ATCCTCGTAA	2.44 ± 0.32
ACATGCACGG	1.268 ± 0.0013
TTTTAGACGT	0.991 ± 0.022
GGGATTCGAG	0.987 ± 0.02
TGACAGCCTT	1.068 ± 0.0032
TTTGCTTACG	1.1 ± 0.13
GGCATCGGAC	1.04 ± 0.015
TATTTGTGTC	0.982 ± 0.057
GTCGGATGCT	1.02 ± 0.047
CAGAGTCGGG	0.9963 ± 0.009
TTAGTACATG	0.976 ± 0.019
CGTTCATTTG	0.993 ± 0.028
GGGAGCCCTC	0.9958 ± 0.0055
TATGTTATGT	1.01 ± 0.052
